Variants at the floor of the assay were thinned out.
B1: TPR 5TU (parent)
chain: GGAUCUUCUCGAUCUAACAAAAAAGACAAAUCUGCCACAAAGCUUGAGAGCAUCUUCGGAUGCAGAGGCGGCAGCCUUCGGUGGCGCGAUAGCGCCAACGUUCUCAACUAUGACACGCAAAACGCGUGCUCCGUUGAAUGGAGUUUAUCAUG

Variants of: B1
Assay: polymerase ribozyme fitness, log enrichment relative to wild type (log ratio); higher = more active; in vitro selection for triplet polymerase activity
Outline: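 Each subunit of a heterodimeric triplet polymerase ribozyme was represented by a PCR-built, transcribed mutant library that underwent triplicate single-round in vitro selection with frozen incubation at −7 °C. Extended constructs were recovered by gel excision, streptavidin-bead capture and RT-PCR, and Illumina sequencing of input and output libraries kept genotypes with ≥10 input reads and ≥1 read per output. Fitness is the logarithm of genotype enrichment relative to wild-type enrichment, from inverse-variance-weighted replicate averages, with a logarithm base of 2.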

Variant	polymerase ribozyme fitness (log ratio)
GGAUCUUCUCGAUCAAACAAAAAAGACAAAUCUGCCACAAAUCUUGAGAGCAUCUUCGGAUGCAGAGGCGGCAGCCUUCGGUGGCGGGAUAGCACCAAGGUUCUCAACUAUGACACGCAAAACGUGUGCUCCGUUGAAUGGAGUUUAACAUG	≤ -4.2
GGAUCUUCUCGAUCUAACAAAAAAGACAAAUCGGCCACAAAGCUUGAGAGUAUCUUCGGAUGCAGAGGCGGCAGCCUUCUGUGGCGAGAUAGCGCUAACGUUCUCAACUAUGACACGCAGAACGCGUGAUCCGUUGAAUGGAGUUUAGCAUG	≤ -4.2
GGAUCUUCUCGAUCUAACAAACAAGACAAAUCUGCCACAAAGCUUGAGAGCAUAUUCGGAUGCAGAGGCGGCAGCCUUCGGUGGCGCGAUAGCACCAUCGUUCUCAACUAUGACACGCAAAACGCGUGCUCCGUUGAAUGGAGUUUAUCAUG	-1.82
GGAUCUUCUCGAUCUAACAAAAAAGACAAAUCUGCCACAAAGCUUGAGAGCAUCUUCGGAUGCAGAGGCGGCAGCCUUCGGUGGCGCGAUAGCGCUAACCUUCUCAACUAUGACACGCAAAACGCGUGCUCCGUUGAAUGGAGUUUAUCAUG	-3.97
GGAUCUUCUCUAUCUAACAAAAAAGACAAAUCUGCCACAAAGCUUGAGAGCAUCUUCGGAUGCAGAGGCGGCAGCCUUCGGUGGAUCGAUAGCGCCAACGUUCUCAACUAUGACACGCAAAACGCGUGCUCCGGUGAAUGGAGUUUAUCGUG	≤ -4.2
GGAUCUUCUCGAUCUAACAAAAAAGACAAAUCUGCCACAAAGCUUGAGAGCAUCUUCGGAUGCAGAGGCGGCAGCCUUCGGUAGCGCGAUAGCGCCAACGUUCUCAACUAUGACACGGAAAACGCGUGCUCCGUUGAAUGGAGUUUAUCAUG	-0.683
GGAUCUUCUCGAUCUAACAAAAAAGACAAAUCUGCCACAAAGCUUGAGAGCAUCUUCGGAUGCAGAGGCCGCAGCCUUCGGUGGCGAGAUAGCGCCAACGUUCUCAACUAUGACACGCAAAACGCGUGCUCCGUUGAAUCGAGUUUAUCAUG	≤ -4.2
GGAUCUUCUCGAUCUAACAAAAAAGACAAAUCUGCCACAAAGUUUGAGAGCAUCUUCGGAUGCAGAGGCGACAGCCUUCGGAGGCGCGAUAGCGACUACGUUAUCAACUAUGACACGCAAAACGCAUGCUCCGUUGAAUGGAGUUUAUUAUG	≤ -4.2
GGAUCUUCUCGAUCUAACAAAAAAGACAAAUUUGCCACAAAGCUUGAGAGCAUCUUCGGAUGCAGAGGCGGCAGUCUUCGAUGCCGCGAUAGCGCCAACGUUCUCAACUAUGACACGCAACACGCGCGCUCCGUUGAGUAGAGUUUAUCAUG	≤ -4.2
GGAUCUUCUCGAUCUAACAAAAAAGACAAAUCUGCCACAAAGCUUGAGAGCAUCUUCGGAUGCAGAGGCGGCAGCCUUCGGUGGCGUGAUAGCGCCAACGUGCUCAACUAUGACACGCAAAACGCGUGCUCCGUUGACUGGAGUUUAUCAUG	≤ -4.2
GGAUCUUCUCGAUCUAACAAAAAAGACAAAUCUGGCACAAAGCUUGAGAGCAUCAUCGGCUGCAGAGGCGGCAGGCUUCGGUGGCGCGAUAGCGCCAACGUUCUCAACUAUGAGACGCUAAACGCGUGCUCCGUUGAAUGGAGUUUAUCAUG	≤ -4.2
GGAUCUUCUCGAUCUAACAAAAAAGACAAAUCUGCCACAAAGCUUGAGAGCAUCUUCGGAAGCAGAGGCGGCAGCCUUCGGUGGCGCGAUAGCGCCAACGUUCUCAACUAUGACACGGAAAACGCGUGCUCCGUUGAAUGGAGUUUAUCAUG	-1.89
GGAUCUUCUCGAUCUAACAAAAAAGACAAUUCUGCCACAAAGCUUGAGAGCAUCUUCGGAUGCAGAGGCGGCAGCCUUCGGUGGCGCGAUAGCGCUAACGUUCUCAACUAUGACACGCAAAACGCGUGCUCCGUUGAAUGGAGUUUAUCAUG	-3.12
GGAUCUUCUCGAUCUUACAAAUAAGACAAAUCUGCCGCAAAGCUUGAGAGCAUCUUCGGAUGCAGAGGCGGUAGCCUUCGGUGGCGCGAUAGCGCCAACGUUCUCAACUAUGACACGCAAAACGCGUGCUCCGUUGAAUGGAGUUUAUCAUG	-3.87
GGAUCUGCUCGAUCUAACAAUAAAGACAAAUCUGCCACAAAGCUUGAGAGCAUCUUCGGAUGCAGAGGCGGCAGCCUUCGGUGGCGCGAUAGCGCCAACGUUCUCAACUAUGACACGCAAAACGCGUGCUCCGUUGAAUGGAGUUUAUCAUG	-2.97
GGAUCUUCUCGAUCUAACAAAAAAGAUAAAUCUGCCACAAAGCUUGAGAGCAUCUUCGGAUGCAGAGGCGGCAGCCUUCGGUGGCGCGAUAGCGCCAACGUUCUCAACUAUGACACGCAAAACGCGUACUCCGUUGAAUGGAGUUUAUCAUG	-4.04
GGAUCUUCUCGGUCUAACAAAAAAGACAAAUCUGCCCCAAAGCUUGAGAGCAUCUUCGGAUGCAGAGGCGGCAGCCUUCGGUGGCACGAUAGCGACAACGUUCUCAACUAUGACACGCAAAACGCGUGCUCCGUUGAAUGGAGUUUAUCAUG	≤ -4.2
GGAUCUUCUCGAUCUAACAAAAAAGACAAAUCUGCCACAAAGCUUGAGAGCAUCUACGGAUGCAGAGGCGGCAGCCUUCGGUGGCGCGAUAGCGCCAACGUUCUCAACUAUGACACGCAAAACGCGUGCUCCGUUGAAUGGAGCUUAUCAUG	0.537
GGAUCUUCUCGAACUAACAAAAAAGACAAAUCUGCCACAAAGCUUGAGAGCAUCUUCGGAUGCAGAGGCGGCAGCCUUCGGUGGCGCGAUAGCGCCAACGUUCUCAACUAUGUCACGCAAAACGCGUGCUCCGUUGAAUGGAGUUUAUCAUG	-2.5
